This is an account of results in CN112079917A (CANVEST WUHAN BIOTECHNOLOGY CO LTD, dated 2020).

One test concerns the target BSA (UniProt P02769 25-607). Briefly: ELISA, IgG form.
For test [1], the target named is 17SF HA毒株 (A/Guangdong/17SF003/2016) HA蛋白 (influenza A virus A/Guangdong/17SF003/2016 (H7N9)). Briefly: ELISA, IgG form on HA protein.
Test [2] addresses SH02 HA毒株 (A/Shanghai/2/2013 H7N9) HA蛋白 (influenza A virus A/Shanghai/2/2013 H7N9). Briefly: ELISA, IgG form on HA protein.

Chain of BSA (P02769 25-607 limits assumed): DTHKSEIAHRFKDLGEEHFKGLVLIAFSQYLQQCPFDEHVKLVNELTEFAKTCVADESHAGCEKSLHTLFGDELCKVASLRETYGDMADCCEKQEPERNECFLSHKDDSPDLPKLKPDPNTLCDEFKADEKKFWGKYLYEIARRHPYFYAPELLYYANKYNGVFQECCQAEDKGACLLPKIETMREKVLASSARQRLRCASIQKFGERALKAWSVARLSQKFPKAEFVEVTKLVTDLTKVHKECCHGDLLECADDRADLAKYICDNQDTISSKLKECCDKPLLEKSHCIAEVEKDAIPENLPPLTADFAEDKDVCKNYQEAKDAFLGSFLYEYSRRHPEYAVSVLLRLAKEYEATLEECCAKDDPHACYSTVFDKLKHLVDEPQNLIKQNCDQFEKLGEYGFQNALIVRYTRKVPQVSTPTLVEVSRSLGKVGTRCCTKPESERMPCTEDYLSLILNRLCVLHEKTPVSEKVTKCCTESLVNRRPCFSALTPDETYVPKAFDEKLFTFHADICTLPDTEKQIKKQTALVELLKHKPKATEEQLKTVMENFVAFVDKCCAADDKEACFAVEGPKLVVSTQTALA

B1: H7N9病毒特异性识别抗体P51H08 (IgG形式) (antibody, V domains shown)
VH: QVQLVQSGGGLVQPGGSMRLSCAASGFTFSSYAMSWVRQAPGKGLEWVSGISGSGGSTYYADSVKGRFTISRDNSKNTLHLPMNSLRADDTAVYYCAKDLNWWPDYWGQGTLVTVSS
VL: SYVLTQPPSVSVAPGKTASMTCGGNNIGSKRVHWYQQKPGQAPVLVVYNDNERPSAIPERFSGSNSGNTATLTVSRVEAGDEADYYCLVWDSSSLHRVFGGGTKLTVLG
In the case of B1, in the test with BSA, the binding result is “no binding”. In addition, the 50% effective concentration (EC50) is 3.56 nM in test [1] and 1.65 nM in test [2].
